Results from the supplement of paper PMC10567573.

B1: HESX1 (parent)
chain: ENKPSTCSFSIERILGLDQKKDCV

Variants of: B1
Assay: protein stability index of a GFP-peptide fusion (GPS, HEK-293T) (PSI 1-6); higher = more stable
Conditions: c terminus: a fixed tail appended
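Also: lentivirally expressed fusions sorted by FACS into six bins by GFP to DsRed ratio, PSI derived from sequencing read proportions per bin multiplied by bin number.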

Variant	protein stability index
ENKPSTCSFSIERILGLIQKKDCV	1.74
ENKPSTCSFSIERILGLAQKKDCV	2.94
ENKPSTCSFSIERILGLKQKKDCV	2.79
ENKPSTCSFSIERILGLPQKKDCV	2.71
ENKPSTCSFSIERILGLMQKKDCV	2.23
ENKPSTCSFSIERILGLGQKKDCV	2.55
ENKPSTCSFSIERILGLSQKKDCV	3.13
ENKPSTCSFSIERILGLFQKKDCV	1.85
ENKPSTCSFSIERILGLWQKKDCV	2.32
ENKPSTCSFSIERILGLTQKKDCV	2.77
ENKPSTCSFSIERILGLQQKKDCV	2.89
ENKPSTCSFSIERILGLLQKKDCV	2.12
ENKPSTCSFSIERILGLEQKKDCV	3.4
ENKPSTCSFSIERILGLCQKKDCV	2.85
ENKPSTCSFSIERILGLHQKKDCV	3
ENKPSTCSFSIERILGLYQKKDCV	2.14
ENKPSTCSFSIERILGLRQKKDCV	2.76
ENKPSTCSFSIERILGLNQKKDCV	2.62
ENKPSTCSFSIERILGLVQKKDCV	1.8
ENKPSTCSFSIERILILDQKKDCV	2.63
ENKPSTCSFSIERILPLDQKKDCV	3.75
ENKPSTCSFSIERILMLDQKKDCV	2.92
ENKPSTCSFSIERILHLDQKKDCV	2.83
ENKPSTCSFSIERILALDQKKDCV	3.2

Variant	protein stability index
ENKPSTCSFSIERILCLDQKKDCV	2.83
ENKPSTCSFSIERILLLDQKKDCV	2.43
ENKPSTCSFSIERILELDQKKDCV	3.27
ENKPSTCSFSIERILNLDQKKDCV	3.41
ENKPSTCSFSIERILKLDQKKDCV	2.9
ENKPSTCSFSIERILVLDQKKDCV	3.15
ENKPSTCSFSIERILFLDQKKDCV	2.49
ENKPSTCSFSIERILYLDQKKDCV	2.28
ENKPSTCSFSIERILDLDQKKDCV	3.74
ENKPSTCSFSIERILSLDQKKDCV	3.28
ENKPSTCSFSIERILQLDQKKDCV	3.76
ENKPSTCSFSIERILRLDQKKDCV	2.23
ENKPSTCSFSIERILWLDQKKDCV	2.32
ENKPSTCSFSIERILTLDQKKDCV	3.69
ENKPSTCSFSIERILGMDQKKDCV	2.11
ENKPSTCSFSIERILGHDQKKDCV	3.53
ENKPSTCSFSIERILGQDQKKDCV	3.59
ENKPSTCSFSIERILGNDQKKDCV	4.42
ENKPSTCSFSIERILGGDQKKDCV	3.83
ENKPSTCSFSIERILGPDQKKDCV	4.69
ENKPSTCSFSIERILGSDQKKDCV	3.86
ENKPSTCSFSIERILGYDQKKDCV	2.56
ENKPSTCSFSIERILGVDQKKDCV	4.2
ENKPSTCSFSIERILGWDQKKDCV	2.82

Variant	protein stability index
ENKPSTCSFSIERILGEDQKKDCV	4.25
ENKPSTCSFSIERILGFDQKKDCV	2.91
ENKPSTCSFSIERILGKDQKKDCV	4.04
ENKPSTCSFSIERILGCDQKKDCV	3.22
ENKPSTCSFSIERILGADQKKDCV	4
ENKPSTCSFSIERILGTDQKKDCV	3.78
ENKPSTCSFSIERILGDDQKKDCV	4.4
ENKPSTCSFSIERILGIDQKKDCV	3.31
ENKPSTCSFSIERILGLDMKKDCV	2.6
ENKPSTCSFSIERILGLDRKKDCV	3.2
ENKPSTCSFSIERILGLDTKKDCV	2.88
ENKPSTCSFSIERILGLDSKKDCV	2.79
ENKPSTCSFSIERILGLDWKKDCV	1.35
ENKPSTCSFSIERILGLDFKKDCV	2.12
ENKPSTCSFSIERILGLDAKKDCV	2.33
ENKPSTCSFSIERILGLDNKKDCV	2.64
ENKPSTCSFSIERILGLDIKKDCV	2.39
ENKPSTCSFSIERILGLDHKKDCV	2.47
ENKPSTCSFSIERILGLDYKKDCV	1.97
ENKPSTCSFSIERILGLDCKKDCV	2.67
ENKPSTCSFSIERILGLDEKKDCV	3.23
ENKPSTCSFSIERILGLDPKKDCV	3.14
ENKPSTCSFSIERILGLDKKKDCV	2.94
ENKPSTCSFSIERILGLDLKKDCV	2.62

Variant	protein stability index
ENKPSTCSFSIERILGLDGKKDCV	3.06
ENKPSTCSFSIERILGLDDKKDCV	3.34
ENKPSTCSFSIERILGLDVKKDCV	2.71
ENKPSTCSFSIERIWGLDQKKDCV	2.46
ENKPSTCSFSIERIEGLDQKKDCV	4.11
ENKPSTCSFSIERIVGLDQKKDCV	4.16
ENKPSTCSFSIERIKGLDQKKDCV	4.23
ENKPSTCSFSIERIQGLDQKKDCV	2.69
ENKPSTCSFSIERIYGLDQKKDCV	2.38
ENKPSTCSFSIERIPGLDQKKDCV	3.44
ENKPSTCSFSIERIIGLDQKKDCV	2.96
ENKPSTCSFSIERITGLDQKKDCV	4
ENKPSTCSFSIERISGLDQKKDCV	3.5
ENKPSTCSFSIERIDGLDQKKDCV	4.06
ENKPSTCSFSIERIAGLDQKKDCV	3.14
ENKPSTCSFSIERIGGLDQKKDCV	3.27
ENKPSTCSFSIERIMGLDQKKDCV	2.12
ENKPSTCSFSIERIRGLDQKKDCV	3.61
ENKPSTCSFSIERICGLDQKKDCV	2.63
ENKPSTCSFSIERINGLDQKKDCV	3.73
ENKPSTCSFSIERIHGLDQKKDCV	3.13
ENKPSTCSFSIERIFGLDQKKDCV	2.53
ENKPSTCSFSIERILGLDQKKQCV	2.73
ENKPSTCSFSIERILGLDQKKNCV	2.9

Variant	protein stability index
ENKPSTCSFSIERILGLDQKKCCV	2.12
ENKPSTCSFSIERILGLDQKKSCV	3.41
ENKPSTCSFSIERILGLDQKKLCV	1.5
ENKPSTCSFSIERILGLDQKKTCV	2.02
ENKPSTCSFSIERILGLDQKKACV	2.51
ENKPSTCSFSIERILGLDQKKFCV	2.1
ENKPSTCSFSIERILGLDQKKHCV	2.04
ENKPSTCSFSIERILGLDQKKGCV	2.78
ENKPSTCSFSIERILGLDQKKRCV	3.08
ENKPSTCSFSIERILGLDQKKWCV	1.46
ENKPSTCSFSIERILGLDQKKMCV	1.77
ENKPSTCSFSIERILGLDQKKYCV	2.14
ENKPSTCSFSIERILGLDQKKVCV	1.56
ENKPSTCSFSIERILGLDQKKPCV	3.08
ENKPSTCSFSIERILGLDQKKKCV	2.73
ENKPSTCSFSIERILGLDQKKICV	1.94
ENKPSTCSFSIERILGLDQKKECV	3.24
ENKPSTCSFSIERILGLDQCKDCV	2.52
ENKPSTCSFSIERILGLDQEKDCV	3.08
ENKPSTCSFSIERILGLDQHKDCV	2.47
ENKPSTCSFSIERILGLDQWKDCV	1.62
ENKPSTCSFSIERILGLDQLKDCV	1.93
ENKPSTCSFSIERILGLDQDKDCV	3.27
ENKPSTCSFSIERILGLDQRKDCV	2.41

Variant	protein stability index
ENKPSTCSFSIERILGLDQYKDCV	1.97
ENKPSTCSFSIERILGLDQNKDCV	2.71
ENKPSTCSFSIERILGLDQSKDCV	2.69
ENKPSTCSFSIERILGLDQVKDCV	2.25
ENKPSTCSFSIERILGLDQAKDCV	2.45
ENKPSTCSFSIERILGLDQIKDCV	2.13
ENKPSTCSFSIERILGLDQMKDCV	2.67
ENKPSTCSFSIERILGLDQPKDCV	2.75
ENKPSTCSFSIERILGLDQQKDCV	2.56
ENKPSTCSFSIERILGLDQTKDCV	2.53
ENKPSTCSFSIERILGLDQFKDCV	2.22
ENKPSTCSFSIERALGLDQKKDCV	4.54
ENKPSTCSFSIERCLGLDQKKDCV	3.97
ENKPSTCSFSIERDLGLDQKKDCV	4.11
ENKPSTCSFSIERHLGLDQKKDCV	4.1
ENKPSTCSFSIERMLGLDQKKDCV	3.15
ENKPSTCSFSIERELGLDQKKDCV	4.88
ENKPSTCSFSIERGLGLDQKKDCV	4.09
ENKPSTCSFSIERQLGLDQKKDCV	4.12
ENKPSTCSFSIERVLGLDQKKDCV	3.39
ENKPSTCSFSIERLLGLDQKKDCV	3.11
ENKPSTCSFSIERTLGLDQKKDCV	4.16
ENKPSTCSFSIERPLGLDQKKDCV	4.34
ENKPSTCSFSIERNLGLDQKKDCV	3.83

Variant	protein stability index
ENKPSTCSFSIERRLGLDQKKDCV	3.97
ENKPSTCSFSIERWLGLDQKKDCV	3.38
ENKPSTCSFSIERFLGLDQKKDCV	3.8
ENKPSTCSFSIERKLGLDQKKDCV	4.31
ENKPSTCSFSIERSLGLDQKKDCV	4.52
ENKPSTCSFSIERYLGLDQKKDCV	3.75
ENKPSTCSFSIERILGLDQKKDIV	2.91
ENKPSTCSFSIERILGLDQKKDEV	3.6
ENKPSTCSFSIERILGLDQKKDHV	3.33
ENKPSTCSFSIERILGLDQKKDGV	3.56
ENKPSTCSFSIERILGLDQKKDAV	3.64
ENKPSTCSFSIERILGLDQKKDDV	4.38
ENKPSTCSFSIERILGLDQKKDFV	2.62
ENKPSTCSFSIEYILGLDQKKDCV	2.08
ENKPSTCSFSIESILGLDQKKDCV	3.24
ENKPSTCSFSIEPILGLDQKKDCV	4.41
ENKPSTCSFSIEQILGLDQKKDCV	2.68
ENKPSTCSFSIEIILGLDQKKDCV	1.82
ENKPSTCSFSIETILGLDQKKDCV	3.35
ENKPSTCSFSIENILGLDQKKDCV	3.96
ENKPSTCSFSIEWILGLDQKKDCV	1.75
ENKPSTCSFSIELILGLDQKKDCV	2.27
ENKPSTCSFSIEKILGLDQKKDCV	2.33
ENKPSTCSFSIEVILGLDQKKDCV	2.12

Variant	protein stability index
ENKPSTCSFSIEMILGLDQKKDCV	1.9
ENKPSTCSFSIERILGLDQKWDCV	1.86
ENKPSTCSFSIERILGLDQKVDCV	2.54
ENKPSTCSFSIERILGLDQKNDCV	2.62
ENKPSTCSFSIERILGLDQKRDCV	2.62
ENKPSTCSFSIERILGLDQKEDCV	3.4
ENKPSTCSFSIERILGLDQKYDCV	1.67
ENKPSTCSFSIERILGLDQKQDCV	2.93
ENKPSTCSFSIERILGLDQKSDCV	2.95
ENKPSTCSFSIERILGLDQKLDCV	2.27
ENKPSTCSFSIERILGLDQKFDCV	2.35
ENKPSTCSFSIERILGLDQKDDCV	3.16
ENKPSTCSFSIERILGLDQKHDCV	2.35
ENKPSTCSFSIERILGLDQKTDCV	3.19
ENKPSTCSFSIERILGLDQKMDCV	2.05
ENKPSTCSFSIERILGLDQKIDCV	1.9
ENKPSTCSFSIERILGLDQKGDCV	2.86
ENKPSTCSFSIERILGLDQKPDCV	2.67
ENKPSTCSFSIERILGLDQKCDCV	2.11
ENKPSTCSFSIERILGLDQKADCV	2.41
